Source: publication PMC12867984, “Functional assessment of protein variants in structured domains by fluorescence cross-correlation spectroscopy” (Scientific Reports, 2026)

T1: mCherry-BARD1 (UniProt Q99728 1-777)
T1 construct: also called BRCA1 Associated RING Domain 1; source: HeLa, transfected, in live cells and in lysate
T1 sequence (looked up): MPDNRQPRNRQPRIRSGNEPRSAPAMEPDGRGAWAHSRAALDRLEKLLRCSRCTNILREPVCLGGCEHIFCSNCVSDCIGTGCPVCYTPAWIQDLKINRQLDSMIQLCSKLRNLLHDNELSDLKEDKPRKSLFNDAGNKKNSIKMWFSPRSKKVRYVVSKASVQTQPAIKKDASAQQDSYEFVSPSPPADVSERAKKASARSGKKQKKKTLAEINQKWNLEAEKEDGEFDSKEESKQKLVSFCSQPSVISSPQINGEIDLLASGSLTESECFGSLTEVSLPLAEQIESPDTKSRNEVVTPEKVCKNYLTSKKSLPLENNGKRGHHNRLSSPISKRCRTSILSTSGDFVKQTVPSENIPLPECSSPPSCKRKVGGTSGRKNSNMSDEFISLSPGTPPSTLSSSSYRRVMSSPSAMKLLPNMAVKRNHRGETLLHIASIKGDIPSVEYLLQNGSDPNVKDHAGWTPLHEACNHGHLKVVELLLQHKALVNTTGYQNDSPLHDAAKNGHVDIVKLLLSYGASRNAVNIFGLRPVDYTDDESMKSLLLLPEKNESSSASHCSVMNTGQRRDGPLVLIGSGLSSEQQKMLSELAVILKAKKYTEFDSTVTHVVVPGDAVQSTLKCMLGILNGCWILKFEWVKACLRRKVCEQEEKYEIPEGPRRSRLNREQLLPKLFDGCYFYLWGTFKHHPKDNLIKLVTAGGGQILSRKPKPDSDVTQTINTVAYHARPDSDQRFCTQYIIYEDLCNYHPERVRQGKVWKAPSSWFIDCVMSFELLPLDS

B1: GFP-BRCA1-C44F (natural protein, UniProt P38398 1-1863, looked up)
chain: MDLSALRVEEVQNVINAMQKILECPICLELIKEPVSTKCDHIFFKFCMLKLLNQKKGPSQCPLCKNDITKRSLQESTRFSQLVEELLKIICAFQLDTGLEYANSYNFAKKENNSPEHLKDEVSIIQSMGYRNRAKRLLQSEPENPSLQETSLSVQLSNLGTVRTLRTKQRIQPQKTSVYIELGSDSSEDTVNKATYCSVGDQELLQITPQGTRDEISLDSAKKAACEFSETDVTNTEHHQPSNNDLNTTEKRAAERHPEKYQGSSVSNLHVEPCGTNTHASSLQHENSSLLLTKDRMNVEKAEFCNKSKQPGLARSQHNRWAGSKETCNDRRTPSTEKKVDLNADPLCERKEWNKQKLPCSENPRDTEDVPWITLNSSIQKVNEWFSRSDELLGSDDSHDGESESNAKVADVLDVLNEVDEYSGSSEKIDLLASDPHEALICKSERVHSKSVESNIEDKIFGKTYRKKASLPNLSHVTENLIIGAFVTEPQIIQERPLTNKLKRKRRPTSGLHPEDFIKKADLAVQKTPEMINQGTNQTEQNGQVMNITNSGHENKTKGDSIQNEKNPNPIESLEKESAFKTKAEPISSSISNMELELNIHNSKAPKKNRLRRKSSTRHIHALELVVSRNLSPPNCTELQIDSCSSSEEIKKKKYNQMPVRHSRNLQLMEGKEPATGAKKSNKPNEQTSKRHDSDTFPELKLTNAPGSFTKCSNTSELKEFVNPSLPREEKEEKLETVKVSNNAEDPKDLMLSGERVLQTERSVESSSISLVPGTDYGTQESISLLEVSTLGKAKTEPNKCVSQCAAFENPKGLIHGCSKDNRNDTEGFKYPLGHEVNHSRETSIEMEESELDAQYLQNTFKVSKRQSFAPFSNPGNAEEECATFSAHSGSLKKQSPKVTFECEQKEENQGKNESNIKPVQTVNITAGFPVVGQKDKPVDNAKCSIKGGSRFCLSSQFRGNETGLITPNKHGLLQNPYRIPPLFPIKSFVKTKCKKNLLEENFEEHSMSPEREMGNENIPSTVSTISRNNIRENVFKEASSSNINEVGSSTNEVGSSINEIGSSDENIQAELGRNRGPKLNAMLRLGVLQPEVYKQSLPGSNCKHPEIKKQEYEEVVQTVNTDFSPYLISDNLEQPMGSSHASQVCSETPDDLLDDGEIKEDTSFAENDIKESSAVFSKSVQKGELSRSPSPFTHTHLAQGYRRGAKKLESSEENLSSEDEELPCFQHLLFGKVNNIPSQSTRHSTVATECLSKNTEENLLSLKNSLNDCSNQVILAKASQEHHLSEETKCSASLFSSQCSELEDLTANTNTQDPFLIGSSKQMRHQSESQGVGLSDKELVSDDEERGTGLEENNQEEQSMDSNLGEAASGCESETSVSEDCSGLSSQSDILTTQQRDTMQHNLIKLQQEMAELEAVLEQHGSQPSNSYPSIISDSSALEDLRNPEQSTSEKAVLTSQKSSEYPISQNPEGLSADKFEVSADSSTSKNKEPGVERSSPSKCPSLDDRWYMHSCSGSLQNRNYPSQEELIKVVDVEEQQLEESGPHDLTETSYLPRQDLEGTPYLESGISLFSDDPESDPSEDRAPESARVGNIPSSTSALKVPQLKVAESAQSPAAAHTTDTAGYNAMEESVSREKPELTASTERVNKRMSMVVSGLTPEEFMLVYKFARKHHITLTNLITEETTHVVMKTDAEFVCERTLKYFLGIAGGKWVVSYFWVTQSIKERKMLNEHDFEVRGDVVNGRNHQGPKRARESQDRKIFRGLEICCYGPFTNMPTDQLEWMVQLCGASVVKELSSFTLGTGVHPIVVVQPDAWTEDNGFHAIGQMCEAPVVTREWVLDSVALYQCQELDTYLIPQIPHSHY
notes: also called p.Cys44Phe; source: HeLa, transfected, in live cells
B2: GFP-BRCT (isolated BRCA1 BRCT domain, wild-type) (domain or fragment, UniProt P38398 1650-1863, looked up)
chain: MSMVVSGLTPEEFMLVYKFARKHHITLTNLITEETTHVVMKTDAEFVCERTLKYFLGIAGGKWVVSYFWVTQSIKERKMLNEHDFEVRGDVVNGRNHQGPKRARESQDRKIFRGLEICCYGPFTNMPTDQLEWMVQLCGASVVKELSSFTLGTGVHPIVVVQPDAWTEDNGFHAIGQMCEAPVVTREWVLDSVALYQCQELDTYLIPQIPHSHY
notes: BRCA1 amino acids 1650-1864 cloned into pEGFP-C1; the printed limit 1864 may count the stop codon; also called EGFP-tagged BRCT trimmed domain; source: HeLa, transfected, in lysate

What was measured:
mCherry-BARD1 = target: T1, mCherry-BARD1; experiment: fluorescence cross-correlation spectroscopy (FCCS); GFP- and mCherry-tagged proteins co-expressed in live HeLa cells; focal volume in the nucleoplasm (MSH2-MSH6 also in the cytoplasm); room temperature; cross-correlation/autocorrelation ratio; settings: partners not purified
mCherry-RBBP8 = target: T2, mCherry-RBBP8 (UniProt Q99708 1-897); experiment: fluorescence cross-correlation spectroscopy (FCCS); lysate of co-transfected HeLa cells; 20 mM Tris-HCl pH 7.5, 140 mM KCl, 1.5 mM MgCl2, 1 mM DTT, 0.5% NP-40; lysed at room temperature; cross-correlation/autocorrelation ratio; settings: partners not purified
T2 construct: also called mCherry-RBBP8/CtIP; CtIP; source: HeLa, transfected, in live cells and in lysate
T2 sequence (Q99708 whole entry): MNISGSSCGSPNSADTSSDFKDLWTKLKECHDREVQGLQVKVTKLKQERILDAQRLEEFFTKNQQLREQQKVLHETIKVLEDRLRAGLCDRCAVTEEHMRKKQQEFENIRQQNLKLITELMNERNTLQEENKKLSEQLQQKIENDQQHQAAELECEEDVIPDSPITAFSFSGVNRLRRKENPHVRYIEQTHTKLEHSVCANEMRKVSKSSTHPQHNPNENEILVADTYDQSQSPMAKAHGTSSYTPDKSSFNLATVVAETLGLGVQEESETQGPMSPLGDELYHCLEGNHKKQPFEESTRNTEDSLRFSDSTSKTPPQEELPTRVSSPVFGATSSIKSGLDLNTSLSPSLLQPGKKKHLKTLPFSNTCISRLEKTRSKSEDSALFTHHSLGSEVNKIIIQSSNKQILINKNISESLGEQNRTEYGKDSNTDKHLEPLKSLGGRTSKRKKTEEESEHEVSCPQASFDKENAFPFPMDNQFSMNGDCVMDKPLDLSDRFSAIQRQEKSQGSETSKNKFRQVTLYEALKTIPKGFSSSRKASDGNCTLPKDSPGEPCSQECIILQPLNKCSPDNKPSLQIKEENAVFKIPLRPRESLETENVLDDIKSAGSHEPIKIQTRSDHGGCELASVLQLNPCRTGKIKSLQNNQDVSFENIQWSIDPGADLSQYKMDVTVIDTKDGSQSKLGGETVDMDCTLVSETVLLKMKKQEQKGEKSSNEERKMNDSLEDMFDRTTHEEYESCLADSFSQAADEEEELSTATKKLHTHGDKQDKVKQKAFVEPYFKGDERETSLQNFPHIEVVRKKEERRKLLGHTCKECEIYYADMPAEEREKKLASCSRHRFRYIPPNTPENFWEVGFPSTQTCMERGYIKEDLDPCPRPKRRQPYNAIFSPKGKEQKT

Row | Binder | reduction in binding relative to wild type (mCherry-BARD1) [%] | cross-correlation (mCherry-RBBP8) [%]
1 | B1 | ~50 | –
2 | B2 | – | 17
